The values below come from US20190300590A1 (PROTAGONIST THERAPEUTICS, published 2019).

Where two headings read alike, the source gives them in different places. *1 amine or outer side, *2 acyl side, *3 side chain or, on linkers, in order; H or OH if unused. Bridges are numbered along the chain shown (N, C = ends). Primed or numbered codes have the meaning given here. Side-chain parts run from the residue outwards. [ ]: non-standard residue; d: D form. Phe(4-OMe)(3) = O-methyl-L-tyrosine (4-methoxy-L-phenylalanine), COc1ccc(C[C@H](N[*:1])C(=O)[*:2])cc1; Phe(4-OMe) = 4-methoxy-L-phenylalanine (O-methyl-L-tyrosine), COc1ccc(C[C@H](N[*:1])C(=O)[*:2])cc1; Phe(Bzl) = read as Phe(4-OBzl), O-benzyl-L-tyrosine, O=C([C@H](Cc1ccc(OCc2ccccc2)cc1)N[*:1])[*:2]; Phe(4-OMe)″ = 4-methoxyphenylalanine, COc1ccc(C[C@H](N[*:1])C(=O)[*:2])cc1; Phe(4-OMe)(4) = O-methyl-L-tyrosine, COc1ccc(C[C@H](N[*:1])C(=O)[*:2])cc1; Phe(4-guanidino) = N=C(N)Nc1ccc(C[C@H](N)C(=O)O)cc1; Phe(4-COOH) = N[C@@H](Cc1ccc(C(=O)O)cc1)C(=O)O; Phe(2,4-Me2) = Cc1ccc(C[C@H](N)C(=O)O)c(C)c1; Phe(4-Me) = Cc1ccc(C[C@H](N)C(=O)O)cc1; 2Nal = N[C@@H](Cc1ccc2ccccc2c1)C(=O)O; AEF = NCCOc1ccc(C[C@H](N)C(=O)O)cc1; αMeF = C[C@](N)(Cc1ccccc1)C(=O)O; 4Pal = N[C@@H](Cc1ccncc1)C(=O)O; αMeL = CC(C)C[C@](C)(N)C(=O)O; hLeu = CC(C)CC[C@H](N)C(=O)O; αMeK = C[C@](N)(CCCCN)C(=O)O; PEG2′ = not defined here; Abu = CC[C@H](N)C(=O)O; Dap = NC[C@H](N)C(=O)O; Aib = CC(C)(N)C(=O)O

For assay [1], the target named is T1, IL23R_huFC (human, UniProt Q5VWK5 24-353).
T1 sequence (looked up): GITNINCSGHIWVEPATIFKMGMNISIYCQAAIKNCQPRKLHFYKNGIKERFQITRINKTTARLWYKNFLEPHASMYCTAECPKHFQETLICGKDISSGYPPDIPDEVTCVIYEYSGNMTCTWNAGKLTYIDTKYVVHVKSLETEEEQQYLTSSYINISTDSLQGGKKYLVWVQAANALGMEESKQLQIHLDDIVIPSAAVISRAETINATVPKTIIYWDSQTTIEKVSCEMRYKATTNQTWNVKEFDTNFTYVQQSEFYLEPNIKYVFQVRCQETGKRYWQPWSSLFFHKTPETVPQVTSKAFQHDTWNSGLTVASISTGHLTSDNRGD
In words: human ELISA vs IL-23. (An ELISA detects its analyte on a solid surface through an enzyme-linked reagent.)

Assay [2] concerns the target T1, IL23R_huFC. Kind of assay: human ELISA vs IL-23. The source holds these as a separate data set.
Assay [3] has as its target T2, IL-23R on human cells (IL-23R-expressing DB cells; human NK cells) (human, UniProt Q5VWK5 24-629).
T2 sequence (looked up): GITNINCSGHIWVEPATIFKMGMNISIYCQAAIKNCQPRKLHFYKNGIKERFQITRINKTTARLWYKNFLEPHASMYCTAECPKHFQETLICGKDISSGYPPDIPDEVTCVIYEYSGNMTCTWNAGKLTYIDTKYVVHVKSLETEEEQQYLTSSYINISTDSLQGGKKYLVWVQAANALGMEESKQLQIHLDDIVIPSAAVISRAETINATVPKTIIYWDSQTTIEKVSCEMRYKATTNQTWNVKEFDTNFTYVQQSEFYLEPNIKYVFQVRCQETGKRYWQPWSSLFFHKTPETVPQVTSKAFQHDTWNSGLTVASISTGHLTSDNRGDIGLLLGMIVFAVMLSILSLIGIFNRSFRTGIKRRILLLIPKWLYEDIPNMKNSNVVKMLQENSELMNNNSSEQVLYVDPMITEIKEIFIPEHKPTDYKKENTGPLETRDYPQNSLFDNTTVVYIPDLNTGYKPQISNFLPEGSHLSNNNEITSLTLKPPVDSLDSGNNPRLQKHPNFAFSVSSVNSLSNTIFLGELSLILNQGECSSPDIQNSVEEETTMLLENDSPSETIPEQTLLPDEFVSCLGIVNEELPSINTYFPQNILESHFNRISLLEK
In words: cell-based or functional assay.

The target of assay [4] is Rat IL-23R_huFC (rat). Kind of assay: rat ELISA vs IL-23.

On to Ac-[Abu]QT[2Nal]QC[Phe(4-OMe)(4)][2Nal][αMeK]K(Ac)NG-NH2 (thioether 1-6) [Ac-Cyclo-[[Abu]-QT-[2-Nal]-QC]-[Phe(4-OMe)]-[2-Nal]-[α-MeLys]-[Lys(Ac)]-NG-NH2], for which the IC50 in assay [1] was in the range of 100 to 1000 nM. The molecule XQTXQCFXKENG (as bracketed in name; thioether cyclo) came in with an IC50 in assay [1] of 100 to 1000 nM. As to Ac-[Abu]NTWQC[Phe(4-OMe)(4)][2Nal][αMeK]K(Ac)NG-NH2 (thioether 1-6) [Ac-Cyclo-[[Abu]-NTWQC]-[Phe(4-OMe)]-[2-Nal][α-MeLys]-[Lys(Ac)]-NG-NH2], the IC50 lay in the range of 10 to 25 nM in assay [2] and 25 to 100 nM in assay [4]. Besides, the “pStat3 HTRF IC50” value in assay [3] is less than 10 nM. For the molecule Ac-[Abu]QT[αMeF]QC[AEF][2Nal][αMeK]ENG-NH2 (thioether 1-6) [Ac-Cyclo-[[Abu]-QT-[α-MePhe]-QC]-[Phe[4-(2-aminoethoxy)]]-[2-Nal]-[α-MeLys]-ENG-NH2], the IC50 in assay [1] was 100 to 1000 nM.

In the case of Ac-[Abu]QTWQC[Phe(4-OMe)][2Nal][αMeK]ENG-NH2 (thioether 1-6) [Ac-Cyclo-[[Abu]-QTWQC]-[Phe(4-OMe)]-[2-Nal]-[α-MeLys]-ENG-NH2], the IC50 was 10 to 25 nM in assay [2] and 25 to 100 nM in assay [4]. The “pStat3 HTRF IC50” value in assay [3] was less than 10 nM. In assay [2], Ac-[Abu]QTWQC[AEF][2Nal][αMeK]RNG-NH2 (thioether 1-6) [Ac-Cyclo-[[Abu]-QTWQC]-[Phe[4-(2-aminoethoxy)]]-[2-Nal]-[α-MeLys]-RNG-NH2] came in with an IC50 of 10 to 25 nM. Besides, the “pStat3 HTRF IC50” value in assay [3] is less than 10 nM. Ac-[Abu]QTWQC[4Pal][2Nal][αMeK]K(Ac)NG-NH2 (thioether 1-6) [Ac-Cyclo-[[Abu]-QTWQC]-[4-Pyridylalanine]-[2-Nal][α-MeLys]-[Lys(Ac)]-NG-NH2] had an IC50 in assay [1] of 100 to 1000 nM. Same read-out and setting: in the case of Ac-[Abu]QT[Phe(2,4-Me2)]QC[AEF][2Nal][αMeK]ENG-NH2 (thioether 1-6) [Ac-Cyclo-[[Abu]-QT-[Phe(2,4-Me2)]-QC]-[Phe[4-(2-aminoethoxy)]]-[2-Nal]-[α-MeLys]-ENG-NH2] it was 100 to 1000 nM. For the molecule Ac-[Abu]QTWQC[AEF][2Nal][αMeK][Dap]([PEG2′-Ac])NG-NH2 (thioether 1-6) [Ac-Cyclo-[[Abu]-QTWQC]-[Phe[4-(2-aminoethoxy)]]-[2-Nal][α-MeLys]-[Dap(PEG2-Ac)]NG-NH2], the IC50 in assay [2] lay within 10 to 25 nM.

Ac-[Abu]STWQC[AEF][2Nal][αMeK]KNGGE-NH2 (thioether 1-6) [Ac-Cyclo-[[Abu]-STWQC]-[Phe[4-(2-aminoethoxy)]]-[2-Nal]-[α-MeLys]-KNGGE-NH2]: the IC50 in assay [1] fell in the range of 100 to 1000 nM. The same measure, in the same setting: the result for Ac-[Abu][Dap]TWQC[AEF][AEF][αMeK]K(Ac)NG-NH2 (thioether 1-6) reads 100 to 1000 nM. For Ac-[Abu]QTWQC[AEF]W[Aib]ENG-NH2 (thioether 1-6) [Ac-Cyclo-[[Abu]-QTWQC]-[Phe[4-(2-aminoethoxy)]]-W-[Aib]-ENG-NH2], in assay [2], the half-inhibitory concentration (IC50) lay in the range of 10 to 25 nM. Besides, the “pStat3 HTRF IC50” value in assay [3] was less than 10 nM. On to Ac-[Abu]QTWQCYW[αMeL]ENG-NH2 (thioether 1-6) [Ac-Cyclo-[[Abu]-QTWQC]-YW-[α-MeLeu]-ENG-NH2], for which the results for the IC50 in assay [2] and in assay [4] were 10 to 25 nM and 25 to 100 nM, respectively. Further, the “pStat3 HTRF IC50” value in assay [3] is less than 10 nM.

Regarding Ac-[Abu]QTWQC[AEF][Phe(4-COOH)][αMeK]K(Ac)NG-NH2 (thioether 1-6) [Ac-Cyclo-[[Abu]-QTWQC]-[Phe[4-(2-aminoethoxy)]]-[Phe(4-CO2H)]-[α-MeLys]-[Lys(Ac)]-NG-NH2], the IC50 in assay [1] lay in the range of 100 to 1000 nM.

The molecule Ac-[Abu]QTWQC[AEF]W[hLeu]ENG-NH2 (thioether 1-6) [Ac-Cyclo-[[Abu]-QTWQC]-[Phe[4-(2-aminoethoxy)]]-W-[hLeu]-ENG-NH2] displayed an IC50 in assay [2] of 10 to 25 nM. Moreover, in assay [3], the “pStat3 HTRF IC50” value is less than 10 nM. Ac-[Abu]QTWQC[Phe(4-OMe)(3)][Phe(4-guanidino)][αMeK]ENG-NH2 (thioether 1-6) [Ac-Cyclo-[[Abu]-QTWQC]-[Phe(4-OMe)]-[Phe(4-guanidino)]-[α-MeLys]-ENG-NH2] had an IC50 in assay [1] of 100 to 1000 nM. On the same count and under the same terms, in the case of Ac-[Abu]QTWQC[Phe(4-OMe)(3)][Phe(Bzl)][αMeK]ENG-NH2 (thioether 1-6) [Ac-Cyclo-[[Abu]-QTWQC]-[Phe(4-OMe)]-[Phe(Bzl)]-[α-MeLys]-ENG-NH2] it was 100 to 1000 nM; in that of Ac-[Abu]QTWQC[Phe(4-OMe)″][Phe(4-Me)][αMeK]ENG-NH2 (thioether 1-6) [Ac-Cyclo-[[Abu]-QTWQC]-[Phe(4-OMe)]-Phe(4-Me)-[α-MeLys]-ENG-NH2], 100 to 1000 nM.

Broadly, the IC50 is the concentration that gives 50% inhibition.
